Assay results: PMC6412877, “Novel Site-Specific Fatty Chain-Modified GLP-1 Receptor Agonist with Potent Antidiabetic Effects” (Molecules, 2019)

molecular target: Glucagon-like peptide-1 receptor extracellular domain; experiment: SPR; Biacore 8K, according to the user's manual; who was immobilised and the conditions are not stated

| Binder | Kd |
| --- | --- |
| KQYSSPTAWLVG [PEP03] | 1750 nM |
| YSHAYLEETQRF [PEP05] | 2210 nM |
| FFYSSPSAYLETGGPSSGAPPPS [PEP07] | 24 nM |
| KEYSSPAATQRFGGPSSGAPPPS [PEP08] | 151 nM |
| FTSEGTSSYLET [PEP04] | 3990 nM |
| EFIATAWLVKQTGGPSSGAPPPS [PEP12] | 1090 nM |
| KEYSSPAATQRF [PEP02] | 1050 nM |
| FFYSSPSAYLET [PEP01] | 740 nM |
| YSHAYLEETQRFGGPSSGAPPPS [PEP11] | 1250 nM |
| EFIATAWLVKQT [PEP06] | 2590 nM |
| FTSEGTSSYLETGGPSSGAPPPS [PEP10] | 3000 nM |
